{
  "source": "paper PMC7367873",
  "about": "“Dissecting the sequence determinants for dephosphorylation by the catalytic subunits of phosphatases PP1 and PP2A” (Nature Communications, 2020)",
  "molecules": {"B1": {"name": "AP2A1 (protein, UniProt O95782 1-977, looked up)", "AP-2 complex subunit alpha-1": "MPAVSKGDGMRGLAVFISDIRNCKSKEAEIKRINKELANIRSKFKGDKALDGYSKKKYVCKLLFIFLLGHDIDFGHMEAVNLLSSNKYTEKQIGYLFISVLVNSNSELIRLINNAIKNDLASRNPTFMCLALHCIANVGSREMGEAFAADIPRILVAGDSMDSVKQSAALCLLRLYKASPDLVPMGEWTARVVHLLNDQHMGVVTAAVSLITCLCKKNPDDFKTCVSLAVSRLSRIVSSASTDLQDYTYYFVPAPWLSVKLLRLLQCYPPPEDAAVKGRLVECLETVLNKAQEPPKSKKVQHSNAKNAILFETISLIIHYDSEPNLLVRACNQLGQFLQHRETNLRYLALESMCTLASSEFSHEAVKTHIDTVINALKTERDVSVRQRAADLLYAMCDRSNAKQIVSEMLRYLETADYAIREEIVLKVAILAEKYAVDYSWYVDTILNLIRIAGDYVSEEVWYRVLQIVTNRDDVQGYAAKTVFEALQAPACHENMVKVGGYILGEFGNLIAGDPRSSPPVQFSLLHSKFHLCSVATRALLLSTYIKFINLFPETKATIQGVLRAGSQLRNADVELQQRAVEYLTLSSVASTDVLATVLEEMPPFPERESSILAKLKRKKGPGAGSALDDGRRDPSSNDINGGMEPTPSTVSTPSPSADLLGLRAAPPPAAPPASAGAGNLLVDVFDGPAAQPSLGPTPEEAFLSELEPPAPESPMALLADPAPAADPGPEDIGPPIPEADELLNKFVCKNNGVLFENQLLQIGVKSEFRQNLGRMYLFYGNKTSVQFQNFSPTVVHPGDLQTQLAVQTKRVAAQVDGGAQVQQVLNIECLRDFLTPPLLSVRFRYGGAPQALTLKLPVTINKFFQPTEMAAQDFFQRWKQLSLPQQEAQKIFKANHPMDAEVTKAKLLGFGSALLDNVDPNPENFVGAGIIQTKALQVGCLLRLEPNAQAQMYRLTLRTSKEPVSRHLCELLAQQF"}, "B2": {"name": "GEMIN4 (protein, UniProt P57678 1-1058, looked up)", "Gem-associated protein 4": "MDLGPLNICEEMTILHGGFLLAEQLFHPKALAELTKSDWERVGRPIVEALREISSAAAHSQPFAWKKKALIIIWAKVLQPHPVTPSDTETRWQEDLFFSVGNMIPTINHTILFELLKSLEASGLFIQLLMALPTTICHAELERFLEHVTVDTSAEDVAFFLDVWWEVMKHKGHPQDPLLSQFSAMAHKYLPALDEFPHPPKRLRSDPDACPTMPLLAMLLRGLTQIQSRILGPGRKCCALANLADMLTVFALTEDDPQEVSATVYLDKLATVISVWNSDTQNPYHQQALAEKVKEAERDVSLTSLAKLPSETIFVGCEFLHHLLREWGEELQAVLRSSQGTSYDSYRLCDSLTSFSQNATLYLNRTSLSKEDRQVVSELAECVRDFLRKTSTVLKNRALEDITASIAMAVIQQKMDRHMEVCYIFASEKKWAFSDEWVACLGSNRALFRQPDLVLRLLETVIDVSTADRAIPESQIRQVIHLILECYADLSLPGKNKVLAGILRSWGRKGLSEKLLAYVEGFQEDLNTTFNQLTQSASEQGLAKAVASVARLVIVHPEVTVKKMCSLAVVNLGTHKFLAQILTAFPALRFVEEQGPNSSATFMVSCLKETVWMKFSTPKEEKQFLELLNCLMSPVKPQGIPVAALLEPDEVLKEFVLPFLRLDVEEVDLSLRIFIQTLEANACREEYWLQTCSPFPLLFSLCQLLDRFSKYWQLPKEKRCLSLDRKDLAIHILELLCEIVSANAETFSPDVWIKSLSWLHRKLEQLDWTVGLRLKSFFEGHFKCEVPATLFEICKLSEDEWTSQAHPGYGAGTGLLAWMECCCVSSGISERMLSLLVVDVGNPEEVRLFSKGFLVALVQVMPWCSPQEWQRLHQLTRRLLEKQLLHVPYSLEYIQFVPLLNLKPFAQELQLSVLFLRTFQFLCSHSCRDWLPLEGWNHVVKLLCGSLTRLLDSVRAIQAAGPWVQGPEQDLTQEALFVYTQVFCHALHIMAMLHPEVCEPLYVLALETLTCYETLSKTNPSVSSLLQRAHEQRFLKSIAEGIGPEERRQTLLQKMSSF"}, "B3": {"name": "LIMA1 (protein, UniProt Q9UHB6 1-759, looked up)", "LIM domain and actin-binding …": "MESSPFNRRQWTSLSLRVTAKELSLVNKNKSSAIVEIFSKYQKAAEETNMEKKRSNTENLSQHFRKGTLTVLKKKWENPGLGAESHTDSLRNSSTEIRHRADHPPAEVTSHAASGAKADQEEQIHPRSRLRSPPEALVQGRYPHIKDGEDLKDHSTESKKMENCLGESRHEVEKSEISENTDASGKIEKYNVPLNRLKMMFEKGEPTQTKILRAQSRSASGRKISENSYSLDDLEIGPGQLSSSTFDSEKNESRRNLELPRLSETSIKDRMAKYQAAVSKQSSSTNYTNELKASGGEIKIHKMEQKENVPPGPEVCITHQEGEKISANENSLAVRSTPAEDDSRDSQVKSEVQQPVHPKPLSPDSRASSLSESSPPKAMKKFQAPARETCVECQKTVYPMERLLANQQVFHISCFRCSYCNNKLSLGTYASLHGRIYCKPHFNQLFKSKGNYDEGFGHRPHKDLWASKNENEEILERPAQLANARETPHSPGVEDAPIAKVGVLAASMEAKASSQQEKEDKPAETKKLRIAWPPPTELGSSGSALEEGIKMSKPKWPPEDEISKPEVPEDVDLDLKKLRRSSSLKERSRPFTVAASFQSTSVKSPKTVSPPIRKGWSMSEQSEESVGGRVAERKQVENAKASKKNGNVGKTTWQNKESKGETGKRSKEGHSLEMENENLVENGADSDEDDNSFLKQQSPQEPKSLNWSSFVDNTFAEEFTTQNQKSQDVELWEGEVVKELSVEEQIKRNRYYDEDEDEE"}, "B4": {"name": "SF3B2 (protein, UniProt Q13435 1-895, looked up)", "Splicing factor 3B subunit 2": "MATEHPEPPKAELQLPPPPPPGHYGAWAAQELQAKLAEIGAPIQGNREELVERLQSYTRQTGIVLNRPVLRGEDGDKAAPPPMSAQLPGIPMPPPPLGLPPLQPPPPPPPPPPGLGLGFPMAHPPNLGPPPPLRVGEPVALSEEERLKLAQQQAALLMQQEERAKQQGDHSLKEHELLEQQKRAAVLLEQERQQEIAKMGTPVPRPPQDMGQIGVRTPLGPRVAAPVGPVGPTPTVLPMGAPVPRPRGPPPPPGDENREMDDPSVGPKIPQALEKILQLKESRQEEMNSQQEEEEMETDARSSLGQSASETEEDTVSVSKKEKNRKRRNRKKKKKPQRVRGVSSESSGDREKDSTRSRGSDSPAADVEIEYVTEEPEIYEPNFIFFKRIFEAFKLTDDVKKEKEKEPEKLDKLENSAAPKKKGFEEEHKDSDDDSSDDEQEKKPEAPKLSKKKLRRMNRFTVAELKQLVARPDVVEMHDVTAQDPKLLVHLKATRNSVPVPRHWCFKRKYLQGKRGIEKPPFELPDFIKRTGIQEMREALQEKEEQKTMKSKMREKVRPKMGKIDIDYQKLHDAFFKWQTKPKLTIHGDLYYEGKEFETRLKEKKPGDLSDELRISLGMPVGPNAHKVPPPWLIAMQRYGPPPSYPNLKIPGLNSPIPESCSFGYHAGGWGKPPVDETGKPLYGDVFGTNAAEFQTKTEEEEIDRTPWGELEPSDEESSEEEEEEESDEDKPDETGFITPADSGLITPGGFSSVPAGMETPELIELRKKKIEEAMDGSETPQLFTVLPEKRTATVGGAMMGSTHIYDMSTVMSRKGPAPELQGVEVALAPEELELDPMAMTQKYEEHVREQQAQVEKEDFSDMVAEHAAKQKQKKRKAQPQDSRGGSKKYKEFKF"}},
  "key": {"[1]": {"system": "GFP-14-3-3β and its binding proteins", "assay": "GFP-14-3-3β co-IP with LC-MS/MS label-free quantification, untreated versus PP1c-treated", "parameters": "species or system human"}, "GFP-14-3-3β": {"system": "GFP-14-3-3β", "assay": "GFP-14-3-3β co-IP with LC-MS/MS, untreated GFP-14-3-3β versus GFP control (14-3-3 interactome)", "type": "binding, human"}, "[2]": {"conditions": "GFP-14-3-3β co-IP LC-MS/MS, PP1 vs untreated, student's t-test, label-free quantification, 3 replicates each"}, "[3]": {"conditions": "GFP-14-3-3β co-IP LC-MS/MS, untreated vs GFP, student's t-test, label-free quantification, 3 replicates each"}},
  "data": [
    {"molecule": "B1", "values": [
      {"measurement": "Difference (log2), PP1 vs untreated", "setting": "[1]; pairwise comparison PP1 vs untreated", "result": -0.1358, "unit": "log2"},
      {"measurement": "Difference (log2), untreated vs GFP", "setting": "GFP-14-3-3β; pairwise comparison untreated vs GFP", "result": 1.114, "unit": "log2"}
    ]},
    {"molecule": "B2", "values": [
      {"measurement": "Difference (log2), PP1 vs untreated", "setting": "[1]; log2 difference, pairwise comparison PP1 vs untreated, label-free quantification, 3 replicates each", "result": 1.751},
      {"measurement": "Difference (log2), untreated vs GFP", "setting": "GFP-14-3-3β; log2 difference, pairwise comparison untreated vs GFP, label-free quantification, 3 replicates each", "result": 0.9703}
    ]},
    {"molecule": "B3", "values": [
      {"measurement": "Difference (log2), PP1 vs untreated", "setting": "[1]; [2]", "result": -0.1559, "unit": "log2"},
      {"measurement": "Difference (log2), untreated vs GFP", "setting": "GFP-14-3-3β; [3]", "result": -0.3717, "unit": "log2"}
    ]},
    {"molecule": "B4", "values": [
      {"measurement": "Difference (log2), PP1 vs untreated", "setting": "[1]; [2]", "result": -0.1579, "unit": "log2"},
      {"measurement": "Difference (log2), untreated vs GFP", "setting": "GFP-14-3-3β; [3]", "result": 2.239, "unit": "log2"}
    ]}
  ]
}
